Patent US20090263894A1 (AbbVie / Abbott, published 2009)
Substitutions are numbered along the chain they refer to.

What was measured:
[1] = target: T1, NGAL rAg K15A displayed on yeast (human, UniProt P80188 21-198); assay: flow cytometry, mAb titrated on yeast displaying NGAL; from the highest mAb concentration tested
T1 construct: Yeast display AGA2 fusion as m5
T1 chain: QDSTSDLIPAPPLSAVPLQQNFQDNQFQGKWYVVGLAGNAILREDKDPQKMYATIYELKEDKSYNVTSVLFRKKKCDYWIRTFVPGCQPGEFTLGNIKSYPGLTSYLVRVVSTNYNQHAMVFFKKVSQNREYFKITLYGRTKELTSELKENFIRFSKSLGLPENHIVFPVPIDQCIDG
Description: (§1) The side chain of each of the NGAL rAg residues identified from the epitope selections was altered by site-directed mutagenesis to alanine to confirm the functional epitope (direct contact residues) of each NGAL mAb subclone.
(§2) The change in Gibbs free binding energy (ΔΔG_Ala-WT) was determined to assess the energetic impact of each alanine substitution for mAb binding. The change in Gibbs free binding energy upon alanine substitution was calculated using the following equation [2],
(§3) For these experiments, observed fluorescence (F) was used to solve for KD using equation [1]. The KD derived from equation [1] one was then used in equation [2] to derive the change in Gibbs free binding energy upon alanine substitution. The KD is read from the abscissa of each of the curves at the inflection point.

[2] = target: T2, NGAL rAg R109A displayed on yeast (human, UniProt P80188 21-198); assay: as above
T2 construct: Yeast display AGA2 fusion as m5
T2 chain: T1 chain with A15K, R109A
Description: as §1, §2, §3

[3] = target: T1, NGAL rAg K15A displayed on yeast; assay: flow cytometry, mAb titrated on yeast displaying NGAL; highest mAb concentration tested listed as KD
From the text: as §1, §3

[4] = target: T2, NGAL rAg R109A displayed on yeast; assay: as above
From the text: as §1, §3

B1: anti-NGAL monoclonal antibody 1-903-430 (antibody, V domains shown)
VH: KIQLVQSGPELKKPGETVKISCKASGYTFTNYGMNWVKQAPGKGLKWMGWININTGEPTYAEEFKGRFAFSLETSATTAFLQINNLKNEDTATYLCARDSYSGGFDYWGQGTIVTVSS
VL: DIVMTQSPSSLSVSAGEKVTLSCKSSQSLLISGDQKNYLAWYQQKPGQPPKLLIYGASTRDSGVPDRFTGSGSGADFTLTISSVQAEDLAVYYCQNDHSFPPTFGAGTKLELKR
Question: For B1, which “ΔKD (KD against KD of WT)” value [1] is on record?
Answer: > 24500 fold

Question: What about the “ΔΔG Ala-WT” value [1] of the same binder?
Answer: > 5.97 kcal/mol

Question: What about the “ΔKD (KD against KD of WT)” value [2] of the same binder?
Answer: > 24500 fold

Question: What about the “ΔΔG Ala-WT” value [2] of the same binder?
Answer: > 5.97 kcal/mol

Question: What about the Kd [3] of the same binder?
Answer: > 5 µM

Question: And the Kd [4]?
Answer: > 5 µM
